We go through 4 molecules from patent US6558661 (Genentech, dated 2003).

The chains are these.
B1: human IFN-γ receptor-IgG-1 immunoadhesin (hIFNγR-IgG-1) (Fc fusion, not shown: a dimerising Fc or GST)
chain: EMGTADLGPSSVPTPTNVTIESYNMNPIVYWEYQIMPQVPVFTVEVKNYGVKNSEWIDACINISHHYCNISDHVGDPSNSLWVRVKARVGQKESAYAKSEEFAVCRDGKIGPPKLDIRKEEKQIMIDIFHPSVFVNGDEQEVDYDPETTCYIRVYNVYVRMNGSEIQYKILTQKEDDCDEIQCQLAIPVSSLNSQYCVSAEGVLHVWGVTTEKSKEVCITIFNSSIKG
B2: murine IFN-γ receptor-IgG-1 immunoadhesin (mIFNγR-IgG-1) (Fc fusion, UniProt P15261 26-254, looked up, not shown: a dimerising Fc or GST)
chain: ALTSTEDPEPPSVPVPTNVLIKSYNLNPVVCWEYQNMSQTPIFTVQVKVYSGSWTDSCTNISDHCCNIYEQIMYPDVSAWARVKAKVGQKESDYARSKEFLMCLKGKVGPPGLEIRRKKEEQLSVLVFHPEVVVNGESQGTMFGDGSTCYTFDYTVYVEHNRSGEILHTKHTVEKEECNETLCELNISVSTLDSRYCISVDGISSFWQVRTEKSKDVCIPPFHDDRKDS
B3: recombinant murine IFN-γ (ligand, UniProt P01580 23-155, looked up)
chain: HGTVIESLESLNNYFNSSGIDVEEKSLFLDIWRNWQKDGDMKILQSQIISFYLRLFEVLKDNQAISNNISVIESHLITTFFSNSKAKKDAFMSIAKFEVNNPQVQRQAFNELIRVVHQLLPESSLRKRKRSRC
modifications: radioiodinated with 125I using lactoperoxidase in the binding assays and ligand blots; unlabeled as competitor and in cell assays
notes: also called mIFN-γ
B4: recombinant human IFN-γ (ligand, UniProt P01579 24-166, looked up)
chain: QDPYVKEAENLKKYFNAGHSDVADNGTLFLGILKNWKEESDRKIMQSQIVSFYFKLFKNFKDDQSIQKSVETIKEDMNVKFFNSNKKKRDDFEKLTNYSVTDLNVQRKAIHELIQVMAELSPAAKTGKRKRSQMLFRGRRASQ
modifications: radioiodinated with 125I using lactoperoxidase in the binding assays and ligand blots; unlabeled as competitor and in cell assays
notes: also called hIFN-γ

For assay [1], the target named is B4. The experiment in a line: cell-based or functional assay.
The target in assay [2] is B3. The experiment in a line: cell-based or functional assay.
Assay [3] has as its target B2. Put plainly: equilibrium binding of [125I]mIFN-γ to immunoadhesin immobilized on anti-human IgG Fc coated wells, Scatchard analysis. The procedure:
(§1) IFNv binding assays. The binding of IFNγR-IgGs to IFN-γ was analyzed essentially as described [Ashkenazi et al., *Proc. Natl. Acad. Sci. USA* 88: 10535–10539 (1991)]. Each IFNγR-IgG (1 μg/ml) was immobilized onto microtiter wells coated with goat anti-human IgG Fc antibody. […] Nonspecific binding was determined by omitting IFNγR-IgGs.
(§2) Binding of IFNγR-IqG to IFN-γ. We investigated the binding of the human and murine immunoadhesins to IFN-γ by equilibrium binding analysis (FIG. 2). […] 135: 300–305 (1985); Ucer, et al, Int. J. Cancer 36: 103–108 (1985)].

The target in assay [4] is B1. The experiment in a line: competition binding assay with [125I]hIFN-γ on immobilized hIFNγR-IgG (data not shown). The method, then:
as §1, §2

The target in assay [5] is B2. Put plainly: competition binding assay with [125I]mIFN-γ on immobilized mIFNγR-IgG (data not shown). The procedure: as §1, §2
The target of assay [6] is B1. The experiment in a line: equilibrium binding of [125I]hIFN-γ to immunoadhesin immobilized on anti-human IgG Fc coated wells, Scatchard analysis. The procedure: as §1, §2

For the molecule B1, in assay [1], the “inhibition of hIFN-γ antiviral effect in EMCV-infected human A549 cells, IC50” value was roughly 8 nM and the “inhibition of hIFN-γ induction of ICAM-1 in human HeLa cells, half-maximal inhibition (IC50)” value was roughly 13 nM.

Regarding B2, in assay [2], the “inhibition of mIFN-γ antiviral effect in EMCV-infected mouse L929 cells, IC50” value is roughly 10 nM and the “inhibition of mIFN-γ induction of class I MHC antigen H-2Kk in mouse L929 cells, IC50” value was roughly 10 nM.

Broadly, the Kd is the concentration at which binding is half-saturated. High values mean lower affinity, low ones higher affinity. On to B3, for which the Kd in assay [3] came to 3.3 nM. Moreover, the binding result in assay [4] is on record as “no binding”.

Regarding B4, in assay [5], the binding result is on record as “no binding”. The Kd in assay [6] worked out at 1.5 nM.
